Reference: article doi:10.1101/2020.09.22.307744 (bioRxiv, 2020)
Read-outs that look alike come from different tables or passages of the source. Values belong to the molecule of their own block, whether it stands above or below them.

Tests used:
Assay in all cases: MST
[1] = biological target: Luminal domain of human IRE1α (inositol-requiring enzyme 1α), His-tagged (human) (UniProt O75460)
[2] = biological target: Luminal domain of human ATF6 (activating transcription factor 6), His-tagged (human) (UniProt P18850)
[3] = biological target: Luminal domain of human PERK (PKR-like endoplasmic reticulum kinase), His-tagged (human) (UniProt Q9NZJ5)
[4] = biological target: Human recombinant GRP78 (BiP, binding immunoglobulin protein) (human, UniProt P11021 19-654)
Chain of Human recombinant GRP78 (BiP, binding immunoglobulin protein) (P11021 19-654): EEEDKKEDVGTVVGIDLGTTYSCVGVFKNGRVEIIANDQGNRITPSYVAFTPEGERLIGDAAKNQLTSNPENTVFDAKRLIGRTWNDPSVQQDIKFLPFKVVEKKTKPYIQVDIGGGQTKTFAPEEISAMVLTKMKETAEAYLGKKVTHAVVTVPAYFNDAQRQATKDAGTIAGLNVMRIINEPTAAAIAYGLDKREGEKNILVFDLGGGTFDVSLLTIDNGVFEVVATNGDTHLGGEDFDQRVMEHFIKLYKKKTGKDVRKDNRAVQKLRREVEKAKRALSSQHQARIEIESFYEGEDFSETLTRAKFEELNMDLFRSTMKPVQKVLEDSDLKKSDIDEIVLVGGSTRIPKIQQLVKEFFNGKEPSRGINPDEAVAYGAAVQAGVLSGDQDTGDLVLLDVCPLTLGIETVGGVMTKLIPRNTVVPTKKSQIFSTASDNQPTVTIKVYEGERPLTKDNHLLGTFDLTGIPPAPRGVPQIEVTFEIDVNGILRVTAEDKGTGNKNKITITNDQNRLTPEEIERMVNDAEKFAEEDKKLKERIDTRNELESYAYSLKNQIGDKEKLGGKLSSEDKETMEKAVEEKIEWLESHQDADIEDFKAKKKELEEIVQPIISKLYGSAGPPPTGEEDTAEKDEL

MST [5] = biological target: the molecule itself
MST [6] = biological target: the molecule itself; remark: listed apart in the source
MST [7] = biological target: the molecule itself; remark: listed apart in the source

Kd [1]: 241 nM | Kd [2]: 1300 nM | Kd [3]: 1400 nM
Molecule: C-terminal domain of human MANF (C-MANF), E.coli produced (domain or fragment)

Kd [1]: 9.5 nM | Kd [2]: 9.8 nM | Kd [3]: 7.6 nM
Molecule: C-terminal domain of human MANF (C-MANF), chemically synthesized (domain or fragment)

Kd [1]: 55 nM
Molecule: MANF K128A C130S, recombinant human mutant protein (from UniProt P55145 25-182) (natural protein)

Kd [1]: 94.7 nM | Kd [2]: 347 nM | Kd [3]: 384 nM
Molecule: Mesencephalic astrocyte-derived neurotrophic factor (MANF), recombinant human (from UniProt P55145 25-182) (natural protein)

Kd [4]: 21 nM
B1: Luminal domain of human ATF6 (activating transcription factor 6), His-tagged (domain or fragment, UniProt P18850 399-670, looked up)
chain: EQDSRRMNPSVSPANQRRHLLGFSAKEAQDTSDGIIQKNSYRYDHSVSNDKALMVLTEEPLLYIPPPPCQPLINTTESLRLNHELRGWVHRHEVERTKSRRMTNNQQKTRILQGALEQGSNSQLMAVQYTETTSSISRNSGSELQVYYASPRSYQDFFEAIRRRGDTFYVVSFRRDHLLLPATTHNKTTRPKMSIVLPAININENVINGQDYEVMMQIDCQVMDTRILHIKSSSVPPYLRDQQRNQTNTFFGSPPAATEATHVVSTIPESLQ
modifications: glycosylated (PNGase F assay); Monolith His-Tag Labeling Kit RED-tris-NTA dye on the His-tag

Kd [4]: 14.1 nM
B2: Luminal domain of human PERK (PKR-like endoplasmic reticulum kinase), His-tagged (domain or fragment, UniProt Q9NZJ5 30-514, looked up)
chain: AGRARGLPAPTAEAAFGLGAAAAPTSATRVPAAGAVAAAEVTVEDAEALPAAAGEQEPRGPEPDDETELRPRGRSLVIISTLDGRIAALDPENHGKKQWDLDVGSGSLVSSSLSKPEVFGNKMIIPSLDGALFQWDQDRESMETVPFTVESLLESSYKFGDDVVLVGGKSLTTYGLSAYSGKVRYICSALGCRQWDSDEMEQEEDILLLQRTQKTVRAVGPRSGNEKWNFSVGHFELRYIPDMETRAGFIESTFKPNENTEESKIISDVEEQEAAIMDIVIKVSVADWKVMAFSKKGGHLEWEYQFCTPIASAWLLKDGKVIPISLFDDTSYTSNDDVLEDEEDIVEAARGATENSVYLGMYRGQLYLQSSVRISEKFPSSPKALESVTNENAIIPLPTIKWKPLIHSPSRTPVLVGSDEFDKCLSNDKFSHEEYSNGALSILQYPYDNGYYLPYYKRERNKRSTQITVRFLDNPHYNKNIRKKD
modifications: Monolith His-Tag Labeling Kit RED-tris-NTA dye on the His-tag

Kd [4]: 119 nM
B3: Luminal domain of human IRE1α (inositol-requiring enzyme 1α), His-tagged (domain or fragment, UniProt O75460 19-443, looked up)
chain: IFGSTSTVTLPETLLFVSTLDGSLHAVSKRTGSIKWTLKEDPVLQVPTHVEEPAFLPDPNDGSLYTLGSKNNEGLTKLPFTIPELVQASPCRSSDGILYMGKKQDIWYVIDLLTGEKQQTLSSAFADSLCPSTSLLYLGRTEYTITMYDTKTRELRWNATYFDYAASLPEDDVDYKMSHFVSNGDGLVVTVDSESGDVLWIQNYASPVVAFYVWQREGLRKVMHINVAVETLRYLTFMSGEVGRITKWKYPFPKETEAKSKLTPTLYVGKYSTSLYASPSMVHEGVAVVPRGSTLPLLEGPQTDGVTIGDKGECVITPSTDVKFDPGLKSKNKLNYLRNYWLLIGHHETPLSASTKMLERFPNNLPKHRENVIPADSEKKSFEEVINLVDQTSENAPTTVSRDVEEKPAHAPARPEAPVDSMLKD
modifications: labelled copy: Monolith His-Tag Labeling Kit RED-tris-NTA dye on the His-tag (legends also say Alexa647-labeled through His-tag)
Kd (MST [5]): 2.7 nM | Kd (MST [6]): 7.3 nM | Kd (MST [7]): 40 nM
